According to patent publication US20190085093:

Columns and labels:
[1] = target: FCHo1-C-3×DDK mutation Δ531-589, O14526
[2] = target: FCHo1-C-3×DDK mutation Δ563-564, O14526
Chain of FCHo1-C-3×DDK mutation Δ563-564, O14526 (O14526 whole entry, looked up, stated change not applied, tested part not stated): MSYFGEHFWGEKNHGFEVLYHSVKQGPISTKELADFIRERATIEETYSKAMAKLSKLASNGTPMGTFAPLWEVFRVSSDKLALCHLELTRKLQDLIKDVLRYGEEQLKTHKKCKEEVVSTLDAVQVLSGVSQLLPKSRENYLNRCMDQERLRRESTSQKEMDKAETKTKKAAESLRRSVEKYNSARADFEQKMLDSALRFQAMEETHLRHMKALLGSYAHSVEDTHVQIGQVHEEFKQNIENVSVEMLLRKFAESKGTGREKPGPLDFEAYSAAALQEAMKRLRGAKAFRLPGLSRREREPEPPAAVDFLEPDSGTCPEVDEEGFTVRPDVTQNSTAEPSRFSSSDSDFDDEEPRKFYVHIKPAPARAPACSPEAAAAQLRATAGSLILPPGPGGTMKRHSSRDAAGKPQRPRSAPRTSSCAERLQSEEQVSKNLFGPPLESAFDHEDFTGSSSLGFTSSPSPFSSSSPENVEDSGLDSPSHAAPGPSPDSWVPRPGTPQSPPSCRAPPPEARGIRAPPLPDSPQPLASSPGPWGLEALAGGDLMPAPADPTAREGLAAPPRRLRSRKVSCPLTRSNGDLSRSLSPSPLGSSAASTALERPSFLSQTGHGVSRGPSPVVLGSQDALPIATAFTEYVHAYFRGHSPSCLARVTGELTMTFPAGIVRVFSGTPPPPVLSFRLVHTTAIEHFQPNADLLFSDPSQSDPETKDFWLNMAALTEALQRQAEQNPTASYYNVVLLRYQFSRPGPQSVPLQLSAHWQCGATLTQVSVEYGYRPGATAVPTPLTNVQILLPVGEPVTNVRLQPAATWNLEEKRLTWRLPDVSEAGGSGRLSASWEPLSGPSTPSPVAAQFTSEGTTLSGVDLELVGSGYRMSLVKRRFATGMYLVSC

Chain of FCHo1-C-3×DDK mutation Δ531-589, O14526 (O14526 whole entry, looked up, stated change not applied, tested part not stated): as above

B1: matrix metallopeptidase 9 (MMP-9) (protein)
chain: APRQRQSTLVLFPGDLRTNLTDRQLAEEYLYRYGYTRVAEMRGESKSLGPALLLLQKQLSLPETGELDSATLKAMRTPRCGVPDLGRFQTFEGDLKWHHHNITYWIQNYSEDLPRAVIDDAFARAFALWSAVTPLTFTRVYSRDADIVIQFGVAEHGDGYPFDGKDGLLAHAFPPGPGIQGDAHFDDDELWSLGKGVVVPTRFGNADGAACHFPFIFEGRSYSACTTDGRSDGLPWCSTTANYDTDDRFGFCPSERLYTQDGNADGKPCQFPFIFQGQSYSACTTDGRSDGYRWCATTANYDRDKLFGFCPTRADSTVMGGNSAGELCVFPFTFLGKEYSTCTSEGRGDGRLWCATTSNFDSDKKWGFCPDQGYSLFLVAAHEFGHALGLDHSSVPEALMYPMYRFTEGPPLHKDDVNGIRHLYGPRPEPEPRPPTTTTPQPTAPPTVCPTGPPTVHPSERPTAGPTGPPSAGPTGPPTAGPSTATTVPLSPVDDACNVNIFDAIAEIGNQLYLFKDGKYWRFSEGRGSRPQGPFLIADKWPALPRKLDSVFEERLSKKLFFFSGRQVWVYTGASVLGPRRLDKLGLGADVAQVTGALRSGRGKMLLFSGRRLWRFDVKAQMVDPRSASEVDRMFPGVPLDTHDVFQYREKAYFCQDRFYWRVSSRSELNQVDQVGYVTYDILQCPED
[1]
  zymography of MMP-9 after FLAG immunoprecipitation: the activity of MMP-9 is suppressed in FCHo1 deletion mutations A563-564 and A531-589 compared with the wild-type
[2]
  zymography of MMP-9 after FLAG immunoprecipitation: the activity of MMP-9 is suppressed in FCHo1 deletion mutations A563-564 and A531-589 compared with the wild-type
